Values joined by “and” are separate entries in the source; they are usually repeats but may differ in a detail not shown here. Equal values may be shown once.
B1: GST fused with the carboxy-terminal domain of ezrin (other)
chain: REEKHQKQLERQQLETEKKRRETVEREKEQMMREKEELMLRLQDYEEKTKKAERELSEQIQRALQLEEERKRAQEEAERLEADRMAALRAKEELERQAVDQIKSQEQLAAELAEYTAKIALLEEARRRKEDEVEEWQHRAKEAQDDLVKTKEELHLVMTAPPPPPPPVYEPVSYHVQESLQDEGAEPTGYSAELSSEGIRDDRNEEKRITEAEKNERVQRQLLTLSSELSQARDENKRTHNDIIHNENMRQGRDKYKTLRQIRQGNTKQRIDEFEAL
notes: also called GST-Ezrin-CT; C-terminus of ezrin; not shown: glutathione S-transferase (GST) tag

Tests used:
[1] = biological target: gD-tagged wild-type ErbB2 (human) (UniProt P04626); test: cell-based or functional assay
endogenous EGFR = biological target: T1, endogenous EGFR (human, UniProt P00533 25-1210); test: GST pull-down from HBMEC lysates
T1 construct: whole, on cells; Endogenous receptor of HBMECs, from lysates; also called endogenous EGF receptors
Description: (§1) Clarified lysates were incubated with GST fusion proteins (20-30 mg) bound to glutathione-Sepharose beads for 2 h at 4° C. Beads were washed three times with lysis buffer, and bound proteins were eluted in Laemmli sample buffer and separated by SDS-PAGE for analysis by western blotting.

[2] = biological target: T2, gD-tagged wild-type ErbB2 (human, UniProt P04626 23-1255); test: GST pull-down from HBMEC lysates, anti-gD western blot
T2 construct: whole, on cells; Expressed in HBMECs (human endothelial cells); also called gD-ErbB2-WT; gD-ErbB2 WT
Description: as §1

Row | Molecule | ErbB2-induced cell proliferation of HBMECs [1] | binding result (endogenous EGFR) | binding result [2]
1 | VSV-g-tagged ezrin FERM domain (from UniProt P15311 1-295) | 85 % reduction and 70 % reduction | – | –
2 | B1 | – | no binding | no binding
